Substrate: O=C(O)C(=O)O
Test: purified protein
Settings: typical values given as a range; decarboxylase activity; Mn enzyme

B1: Oxalate Decarboxylase (OxDC), WT, His6-tagged (Bacillus subtilis subsp. subtilis str. 168) (protein)
chain: MKKQNDIPQPIRGDKGATVKIPRNIERDRQNPDMLVPPETDHGTVSNMKFSFSDTHNRLEKGGYAREVTVRELPISENLASVNMRLKPGAIRELHWHKEAEWAYMIYGSARVTIVDEKGRSFIDDVGEGDLWYFPSGLPHSIQALEEGAEFLLVFDDGSFSENSTFQLTDWLAHTPKEVIAANFGVTKEEISNLPGKEKYIFENQLPGSLKDDIVEGPNGEVPYPFTYRLLEQEPIESEGGKVYIADSTNFKVSKTIASALVTVEPGAMRELHWHPNTHEWQYYISGKARMTVFASDGHARTFNYQAGDVGYVPFAMGHYVENIGDEPLVFLEIFKDDHYADVSLNQWLAMLPETFVQAHLDLGKDFTDVLSKEKHPVVKKKCSK
kcat: 50 − 60 s^-1

Reference: article doi:10.1101/426874v1
